# Measurements published in US20060223059A1.
# Like-named read-outs stand apart in the source and are kept apart here.
# T1: Boc-A-A-P-F-AMC
# T1 sequence: AAPF
# T2: Boc-V-P-R-AMC
# T2 sequence: VPR
# T3: Boc-A-A-P-F-AMC
# T3 chain: AAPF
# T4: Boc-V-P-R-AMC
# T4 chain: VPR
# B1: recombinant kallikrein 14 (without c-myc/His epitopes) (protein)
# chain: IIGGHTCTRSSQPWQAALLAGPRRRFLCGGALLSGQWVITAAHCGRPILQVALGKHNLRRWEATQQVLRVVRQVTHPNYNSRTHDNDLMLLQLQQPARIGRAVRPIEVTQACASPGTSCRVSGWGTISSPIARYPASLQCVNINISPDEVCQKAYPRTITPGMVCAGVPQGGKDSCQGDSGGPLVCRGQLQGLVSWGMERCALPGYPGVYTNLCKYRSWIEETMRDK
# B2: recombinant hK14^myc-His (protein)
# chain: EAEFIIGGHTCTRSSQPWQAALLAGPRRRFLCGGALLSGQWVITAAHCGRPILQVALGKHNLRRWEATQQVLRVVRQVTHPNYNSRTHDNDLMLLQLQQPARIGRAVRPIEVTQACASPGTSCRVSGWGTISSPIARYPASLQCVNINISPDEVCQKAYPRTITPGMVCAGVPQGGKDSCQGDSGGPLVCRGQLQGLVSWGMERCALPGYPGVYTNLCKYRSWIEETMRDK
# Columns and labels:
# [1] = tested on: T1, Boc-A-A-P-F-AMC
# [2] = tested on: T2, Boc-V-P-R-AMC
# [3] = target: T3, Boc-A-A-P-F-AMC
# [4] = target: T4, Boc-V-P-R-AMC
molecule,measurement,setting,value
chymotrypsin,"hydrolysis of the fluorogenic peptide (release of AMC, arbitrary fluorescence counts)",[1],"Chymotrypsin, as expected, effectively cleaved the peptide substrate in a dose-dependent fashion"
same,"kinetic analysis, fluorescence counts at 30 sec intervals for 15 min",[1],Chymotrypsin activity increases with increasing concentrations and over time
trypsin,"hydrolysis of the fluorogenic peptide (release of AMC, arbitrary fluorescence counts)",[2],"Fluorescence counts increased, in a dose-dependent manner, with increased concentrations of each enzyme"
same,"kinetic analysis, fluorescence counts at 30 sec intervals for 15 min",[2],kallikrein 14- and trypsin-mediated hydrolysis of V-P-R-AMC increases over time
B1,"hydrolysis of the fluorogenic peptide (release of AMC, arbitrary fluorescence counts)",[3],neither recombinant kallikrein 14 nor kallikrein 14^myc-His hydrolyzed the peptide at any of the concentrations used
same,"kinetic analysis, fluorescence counts at 30 sec intervals for 15 min",[3],kallikrein 14 produces only background fluorescence counts (identical to the negative control containing substrate only) at all concentrations throughout the experiment
same,"hydrolysis of the fluorogenic peptide (release of AMC, arbitrary fluorescence counts)",[4],"recombinant kallikrein 14 is able to effectively cleave the trypsin substrate, V-P-R-AMC (SEQ ID NO. 30) at a similar efficiency as trypsin, the positive control"
same,"kinetic analysis, fluorescence counts at 30 sec intervals for 15 min",[4],kallikrein 14- and trypsin-mediated hydrolysis of V-P-R-AMC increases over time
B2,"hydrolysis of the fluorogenic peptide (release of AMC, arbitrary fluorescence counts)",[3],neither recombinant kallikrein 14 nor kallikrein 14^myc-His hydrolyzed the peptide at any of the concentrations used
same,"hydrolysis of the fluorogenic peptide (release of AMC, arbitrary fluorescence counts)",[4],kallikrein 14^myc-His was not able to hydrolyze V-P-R-AMC to a significant extent and is not considered to be active
